{"source": "patent US20210062131A1", "about": "“In Vitro, Multi-Niche, Bone Marrow-on-a-Chip” (Georgia Tech Research Corporation, priority 2018, published 2021)", "system": "CXCL12", "assay": "CXCL12 expression by immunohistochemistry in BMOC device after adding mobilizing agents", "format": "cell-based, human", "conditions": "BMOC with OBs, HUVECs and MSCs; G-CSF and AMD3100 added on day 5, cells fixed and stained on day 6; IHC", "method": "Cells were fixed and stained on day 6. CXCL12 expression was measured by immunohistochemistry (IHC); n=2-3 devices (× 5 ROI each), mean±SD.\nStaining procedure for devices was adapted from previously reported approaches. Devices were washed with PBS, fixed with 4% formaldehyde (ThermoFisher), and permeabilized with 0.1% Triton X-100. Prior to staining, cells were blocked with 5% BSA, 3% goat serum in PBS. Primary antibodies were diluted (1:100) in blocking buffer and devices were stained overnight at 4° C. Devices were then washed with 0.1% BSA in PBS and stained with secondary antibodies (1:200) diluted in wash buffer for 3 hours at RT. Devices were washed with wash buffer and then stained with DAPI (1:1000) and Phalloidin AF647 (1:40)."}
{"molecule": "G-CSF: mobilizing agent added to the BMOC device (protein, UniProt P09919 31-207, looked up) Granulocyte …: TPLGPASSLPQSFLLKCLEQVRKIQGDGAALQEKLVSECATYKLCHPEELVLLGHSLGIPWAPLSSCPSQALQLAGCLSQLHSGLFLYQGLLQALEGISPELGPTLDTLQLDVADFATTIWQQMEELGMAPALQPTQGAMPAFASAFQRRAGGVLVASHLQSFLEVSYRVLRHLAQP", "values": [{"measurement": "expression of cytokine CXCL12", "value": "decrease expression of cytokine CXCL12"}]}
